How the values were obtained:
[1] = biological target: hyperstable HIV-1 cores (affinity-purified), as used for TRIM5α binding and imaging (HIV-1 (NL4-3)); assay: co-sedimentation; settings: scale: CA per TRIM5α_(AGMpyg)
[2] = biological target: hyperstable HIV-1 CA_(A14C,E45C) cores (HIV-1 (NL4-3)); assay: cross-linking
[3] = biological target: truncated TRIM5α_(AGMpyg) that lacked the SPRY domain (African green monkey (Chlorocebus pygerythrus)); assay: SEC; final gel filtration step, HiLoad 16/600 Superdex 200 in 20 mM CHES, 100 nM ZnCl2, 1 mM TCEP, pH 10.0, 4°C; oligomer judged from retention time

“African green monkey TRIM5α (Chlorocebus pygerythrus) (from UniProt Q5C8U4 1-515) (natural protein)” gave a stoichiometry N [1] of 7.
For “hyperstable HIV-1 CA_(A14C,E45C) cores (complex)”, the stoichiometry N [2] was 6.
In the case of “truncated TRIM5α_(AGMpyg) that lacked the SPRY domain (domain or fragment)”, the stoichiometry N [3] was 2.

From PMC4936896
